Measurements published in patent publication US20210221917A1.

Tests used:
FcγRIIa = FcγRIIa (UniProt P12318); test: cell-based competitive TR-FRET
FcγRIIb = FcγRIIb (UniProt P31994); test: cell-based competitive TR-FRET
FcγRIIIa = FcγRIIIa (UniProt P08637); test: cell-based competitive TR-FRET
FcyRIIb [1] = target: FcyRIIb (UniProt P31994); test: cell-based competitive TR-FRET assay (CisBio Bioassays); reference: Construct 5 (SIF3)
FcyRIIb [2] = target: FcyRIIb (UniProt P31994); test: cell-based competitive TR-FRET
FcyRIIIa = FcyRIIIa (UniProt P08637); test: cell-based competitive TR-FRET
FcyRIIa = FcyRIIa (UniProt P12318); test: cell-based competitive TR-FRET

| Substance | EC50 (FcγRIIa) | EC50 (FcγRIIb) | EC50 (FcγRIIIa) | fold increase in binding compared to Construct 5 (SIF3) (FcyRIIb [1]) | EC50 (FcyRIIb [2]) | EC50 (FcyRIIIa) | EC50 (FcyRIIa) |
| --- | --- | --- | --- | --- | --- | --- | --- |
| IgG1 | 502 nM | 1690 nM | 96.2 nM | – | – | – | – |
| Construct 5-FcyRIIb+ mutant (Construct 5 backbone with S267E/L328F) (from UniProt P01857 27-328; P0DOX5 223-449) | – | – | – | > 300 fold | 0.0165 nM | 26.7 nM | 0.126 nM |
